Experimental data from the Human Domainome abundance scans (Beltran et al. 2025).
± gives the uncertainty stated by the source.

B1: POU domain, class 2, transcription factor 2, residues 200 to 269; numbered along this chain, P09086 (parent)
chain: LEELEQFARTFKQRRIKLGFTQGDVGLAMGKLYGNDFSQTTISRFEALNLSFKNMCKLKPLLEKWLNDAE

Variants of: B1
Experiment: abundance fitness (aPCA) (normalised: wild type 0, dead -1); higher = more abundant; growth selection in yeast, the domain comes from the species named
Details: Homo sapiens

Variant	abundance fitness
E5R	0 ± 0.042
E5P	-0.5 ± 0.089
E5G	-0.034 ± 0.037
R9K	-0.011 ± 0.014
L58R	-0.259 ± 0.03
L58D	-0.576 ± 0.074
L58H	-0.221 ± 0.11
L58C	-0.067 ± 0.063
L58Y	-0.157 ± 0.06
L58T	-0.049 ± 0.061
L58I	0.057 ± 0.11
Y33D	-0.036 ± 0.079
Y33N	-0.156 ± 0.071
Y33V	-0.06 ± 0.048
Y33P	-0.068 ± 0.061
Y33C	-0.043 ± 0.046
F11I	-0.254 ± 0.075
F11G	-0.789 ± 0.053
F11M	-0.167 ± 0.055
F11L	-0.177 ± 0.034
F11S	-0.242 ± 0.053
F11R	-1.01 ± 0.088
L1V	-0.061 ± 0.073
L1D	-0.279 ± 0.19

Variant	abundance fitness
L1I	-0.11 ± 0.46
L1S	-0.027 ± 0.12
Q39A	-0.032 ± 0.034
Q39M	-0.024 ± 0.064
Q39F	-0.022 ± 0.08
Q39G	-0.027 ± 0.031
Q39R	-0.019 ± 0.028
Q39T	0.042 ± 0.05
M55A	-0.022 ± 0.023
M55V	-0.142 ± 0.033
M55L	-0.021 ± 0.027
M55I	-0.175 ± 0.061
M55E	-0.512 ± 0.049
M55G	-0.097 ± 0.029
G34C	-0.143 ± 0.051
G34I	-0.248 ± 0.065
G34F	-0.177 ± 0.062
G34T	-0.105 ± 0.086
G34W	-0.207 ± 0.044
G34Q	0.087 ± 0.065
G34P	-0.081 ± 0.053
G34K	-0.111 ± 0.07
K31V	-0.115 ± 0.049
K31D	-0.114 ± 0.055

Variant	abundance fitness
K31L	-0.092 ± 0.041
P60I	0.098 ± 0.069
P60V	-0.035 ± 0.036
P60K	-0.295 ± 0.13
P60W	-0.334 ± 0.065
P60N	-0.177 ± 0.1
P60F	-0.05 ± 0.079
P60L	-0.156 ± 0.036
K53I	-0.073 ± 0.12
K53H	0.016 ± 0.071
K53C	-0.098 ± 0.069
K53G	0.002 ± 0.034
E46A	-0.765 ± 0.067
E46Q	-1.08 ± 0.16
E46R	-0.993 ± 0.079
E46T	-0.87 ± 0.13
E46K	-0.431 ± 0.13
Q22M	-0.054 ± 0.05
Q22W	-0.006 ± 0.047
Q22N	-0.351 ± 0.18
Q22P	-0.071 ± 0.051
E2A	-0.14 ± 0.092
F45I	-0.546 ± 0.17
F45M	-0.109 ± 0.046

Variant	abundance fitness
F45C	-0.752 ± 0.22
F45Y	-0.158 ± 0.079
L50D	-0.089 ± 0.06
L50S	-0.155 ± 0.036
L50R	-0.625 ± 0.044
L50W	-0.183 ± 0.043
L50F	-0.064 ± 0.065
L50M	-0.049 ± 0.057
L50Y	-0.174 ± 0.066
L50N	-0.53 ± 0.1
L50T	-0.054 ± 0.052
L50I	-0.039 ± 0.05
L50G	-0.116 ± 0.028
L50K	-0.658 ± 0.073
L61D	-0.006 ± 0.14
L61Y	-0.082 ± 0.15
L61Q	0.013 ± 0.042
G19L	-0.321 ± 0.043
G19W	-0.926 ± 0.11
G19F	-0.461 ± 0.2
G19N	-0.022 ± 0.099
G19H	-0.086 ± 0.07
G19C	-0.349 ± 0.085
G19Y	-0.908 ± 0.25

Variant	abundance fitness
G19Q	-0.498 ± 0.037
R44W	-0.251 ± 0.045
R44L	-0.025 ± 0.037
R44D	-0.06 ± 0.095
R44N	-0.482 ± 0.32
L18M	0.014 ± 0.064
L18C	-0.213 ± 0.072
L18A	-0.025 ± 0.051
L18F	-0.035 ± 0.082
L62Y	-0.076 ± 0.17
L62R	-0.968 ± 0.11
L62T	-0.501 ± 0.1
L62Q	-0.843 ± 0.18
L62S	-0.804 ± 0.1
F52L	-0.014 ± 0.046
F52T	0.069 ± 0.061
F52M	-0.105 ± 0.11
F52H	-0.2 ± 0.12
F52G	-0.053 ± 0.039
F52V	-0.035 ± 0.05
N54V	0.032 ± 0.055
N54C	-0.193 ± 0.09
N54F	0.018 ± 0.13
N54G	-0.017 ± 0.042

Variant	abundance fitness
D24P	-0.918 ± 0.099
D24S	-0.091 ± 0.043
D24L	-0.215 ± 0.032
D24E	-0.093 ± 0.065
F37L	-0.052 ± 0.039
F37A	-0.152 ± 0.056
F37C	-0.06 ± 0.065
F37R	-0.39 ± 0.044
D36F	0.017 ± 0.072
D36V	-0.048 ± 0.038
D36W	-0.052 ± 0.048
D36N	-0.063 ± 0.061
D36A	-0.05 ± 0.042
K59A	-0.086 ± 0.054
K59Q	-0.094 ± 0.076
I42H	-1.01 ± 0.32
I42D	-0.857 ± 0.24
I42T	-0.552 ± 0.077
I42G	-1.02 ± 0.12
I42E	-0.758 ± 0.1
I42R	-1.11 ± 0.14
I42M	-0.122 ± 0.059
I42W	-0.818 ± 0.16
T10F	0.003 ± 0.024

Variant	abundance fitness
T10W	-0.142 ± 0.019
T10H	-0.013 ± 0.022
T10Y	-0.025 ± 0.024
G30W	-0.013 ± 0.054
G30A	-0.041 ± 0.046
G30H	-0.013 ± 0.086
K17I	-0.072 ± 0.087
K17F	-0.096 ± 0.092
K17D	0.016 ± 0.082
K17V	-0.063 ± 0.04
K17Q	-0.096 ± 0.07
K17C	0.011 ± 0.073
K17A	-0.049 ± 0.039
K17S	-0.009 ± 0.033
G26D	0.047 ± 0.076
G26A	-0.067 ± 0.047
G26I	-0.157 ± 0.083
R15C	-0.698 ± 0.084
R15Q	-1.04 ± 0.079
R15L	-0.806 ± 0.057
R15E	-0.897 ± 0.12
K64M	-0.096 ± 0.069
K64Y	-0.24 ± 0.073
K64D	0.003 ± 0.09

Variant	abundance fitness
K64A	0.081 ± 0.084
T40S	0.032 ± 0.049
T40E	-0.002 ± 0.063
T40P	-0.072 ± 0.087
T40D	0.02 ± 0.089
T40R	-0.021 ± 0.032
T40V	0.068 ± 0.046
T40H	-0.161 ± 0.13
T40Y	0.031 ± 0.12
A28H	-0.064 ± 0.034
A28N	-0.095 ± 0.088
A28Y	-0.101 ± 0.078
A28V	-0.01 ± 0.041
I16N	-0.003 ± 0.08
I16A	-0.085 ± 0.037
I16K	-0.021 ± 0.034
I16E	0.048 ± 0.044
I16M	-0.06 ± 0.065
L48F	0.056 ± 0.077
L48Y	-0.329 ± 0.1
L48N	-0.026 ± 0.076
L48S	0.028 ± 0.041
L48P	-0.472 ± 0.072
L48H	0.023 ± 0.1

Variant	abundance fitness
L48W	-0.158 ± 0.04
L48Q	-0.011 ± 0.06
S38R	-0.037 ± 0.023
S38T	-0.004 ± 0.05
S38E	-0.015 ± 0.053
S38I	-0.107 ± 0.19
N49P	-0.671 ± 0.056
N49Q	0.053 ± 0.058
N49G	-0.004 ± 0.033
N49R	-0.052 ± 0.029
T41N	-0.062 ± 0.092
T41H	0.023 ± 0.073
T41R	-0.179 ± 0.036
T41V	0.024 ± 0.076
W65G	-0.71 ± 0.088
W65K	-0.716 ± 0.16
W65E	-0.923 ± 0.17
W65A	-0.469 ± 0.063
W65M	-0.309 ± 0.12
W65Q	-0.843 ± 0.18
C56V	-0.029 ± 0.038
C56Q	0.062 ± 0.067
C56N	-0.064 ± 0.083
C56D	-0.052 ± 0.057

Variant	abundance fitness
C56I	-0.09 ± 0.062
S43N	-0.046 ± 0.1
S43V	-0.098 ± 0.036
S43I	-0.024 ± 0.093
S43W	-0.047 ± 0.045
S43E	-0.018 ± 0.05
S43T	-0.05 ± 0.046
S43A	0.005 ± 0.046
Q13D	-0.04 ± 0.1
Q13K	-0.041 ± 0.05
F7T	-0.281 ± 0.057
F7K	-0.783 ± 0.1
F7P	-1.13 ± 0.23
F7V	-0.237 ± 0.048
F7N	-0.48 ± 0.099
F7D	-0.595 ± 0.078
F7E	-0.357 ± 0.076
N35V	-0.091 ± 0.047
N35I	-0.15 ± 0.08
N35T	-0.203 ± 0.067
N35Q	-0.104 ± 0.08
N35F	-0.029 ± 0.077
L66M	-0.027 ± 0.057
L66E	-0.409 ± 0.077

Variant	abundance fitness
L66D	-0.358 ± 0.18
L66Y	-0.047 ± 0.16
L66R	-0.837 ± 0.079
L66G	-0.38 ± 0.046
R14Y	-0.149 ± 0.066
R14D	-0.327 ± 0.11
R14K	0.024 ± 0.075
R14G	-0.021 ± 0.033
R14T	0.023 ± 0.047
R14N	0.03 ± 0.11
A47L	-0.032 ± 0.037
A47I	-0.037 ± 0.11
A47F	-0.173 ± 0.075
A47P	-0.641 ± 0.11
A47E	0.082 ± 0.044
A47V	-0.125 ± 0.041
T21M	-0.26 ± 0.058
T21A	-0.138 ± 0.04
T21K	-0.173 ± 0.06
T21Q	-0.205 ± 0.058
V25K	-0.894 ± 0.057
V25E	-0.926 ± 0.088
V25S	-0.453 ± 0.046
V25T	-0.302 ± 0.046

Variant	abundance fitness
V25F	-0.548 ± 0.097
V25A	-0.01 ± 0.04
D68Q	-0.063 ± 0.079
D68E	-0.047 ± 0.052
D68K	-0.015 ± 0.044
D68I	-0.22 ± 0.088
M29P	-0.664 ± 0.081
M29L	0.072 ± 0.042
M29C	-0.076 ± 0.076
S51D	0.06 ± 0.072
S51G	-0.05 ± 0.034
S51M	-0.317 ± 0.053
S51C	-0.172 ± 0.072
S51A	-0.117 ± 0.035
S51I	-0.684 ± 0.42
S51V	-0.507 ± 0.043
A8W	-0.452 ± 0.08
A8S	-0.113 ± 0.045
A8C	0.034 ± 0.063
A8E	-0.846 ± 0.11
F20W	-0.065 ± 0.044
F20R	-0.083 ± 0.034
F20I	-0.101 ± 0.1
A69T	0.056 ± 0.069

Variant	abundance fitness
A69I	0.012 ± 0.11
A69P	-0.15 ± 0.054
A69G	-0.126 ± 0.049
A69N	0.128 ± 0.25
E3G	-0.154 ± 0.041
E3F	-0.208 ± 0.1
E3L	-0.137 ± 0.036
E3I	-0.078 ± 0.086
E3N	-0.107 ± 0.085
E3Y	-0.127 ± 0.072
E3D	-0.087 ± 0.14
E3P	-0.76 ± 0.071
E3M	-0.443 ± 0.18
E3W	-0.263 ± 0.027
G23L	-0.021 ± 0.035
G23N	-0.089 ± 0.096
G23H	-0.056 ± 0.29
G23D	-0.055 ± 0.079
L32F	-0.093 ± 0.063
L32N	-0.163 ± 0.18
L32H	-0.126 ± 0.14
L32D	0.037 ± 0.082
E70Q	-0.07 ± 0.072
E70R	-0.164 ± 0.052

Variant	abundance fitness
E70M	-0.072 ± 0.11
K57G	0.002 ± 0.031
K57D	-0.47 ± 0.17
K57R	-0.064 ± 0.031
K57T	0.024 ± 0.041
K57N	-0.125 ± 0.091
K57I	-0.153 ± 0.085
K57V	-0.088 ± 0.042
K57Q	-0.023 ± 0.061
K57M	0.01 ± 0.049
K57W	-0.068 ± 0.048
N67Y	-0.497 ± 0.38
Q6A	-0.095 ± 0.049
Q6L	-0.066 ± 0.041
Q6K	0.079 ± 0.055
L27N	-0.019 ± 0.21
L27D	-0.012 ± 0.072
L27A	0.041 ± 0.036
L27I	-0.069 ± 0.081
L27R	0.006 ± 0.028
K12S	-0.022 ± 0.22
K12N	-0.583 ± 0.47
